According to paper PMC10415120:

Biological target: MDC1 (endogenous, HCT116) [human (endogenous in HCT116)]
Assay: proximity ligation assay (PLA) in cells
Details: ESCO2 KD HCT116 cells, bleomycin treated; 30 cells counted per group; mean ± SEM; parent: 14; read off a plot

“Flag-ESCO2 WT (in ESCO2 KD HCT116 cells) mutant S196A; T233A [human] / MDC1 (endogenous, HCT116) [human (endogenous in HCT116)] chain 1 S196A, chain 1 T233A” was tested, and the response (PLA dots per cell) was 0.5.
